The text below walks through data of patent US20240010720A1 (IOMX THERAPEUTICS, published 2024).

Sequences and labels used below:
T1: IGSF11 ECD fused to murine-Fc (human; mouse, UniProt Q5DX21 23-241)
T1 construct: also called Fc-fusion IGSF11 ECD; full-length ECD of IGSF11; not shown: murine Fc
T1 sequence: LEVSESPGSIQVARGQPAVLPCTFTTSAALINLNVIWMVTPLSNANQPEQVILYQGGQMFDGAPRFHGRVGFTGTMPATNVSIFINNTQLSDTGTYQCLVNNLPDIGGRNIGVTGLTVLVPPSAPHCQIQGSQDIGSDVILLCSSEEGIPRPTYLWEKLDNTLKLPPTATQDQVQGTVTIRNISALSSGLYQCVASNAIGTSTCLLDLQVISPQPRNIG

T2: His-tagged extracellular domain (ECD) of human IGSF11 (VSIG3) (human, UniProt Q5DX21 23-241)
T2 construct: partly bought (SinoBiological 13094-H08H); also called IGSF11-HIS; HIS-IGSF11; not shown: HIS6 tag
T2 sequence: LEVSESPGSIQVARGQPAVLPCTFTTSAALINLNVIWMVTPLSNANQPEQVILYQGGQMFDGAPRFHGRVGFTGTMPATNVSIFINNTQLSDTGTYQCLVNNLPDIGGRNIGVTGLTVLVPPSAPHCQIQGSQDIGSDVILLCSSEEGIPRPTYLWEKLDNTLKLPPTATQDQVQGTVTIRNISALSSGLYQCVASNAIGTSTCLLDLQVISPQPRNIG

B1: A-033 (scFv format) (scFv, V domains shown)
VH: QVQLVQSGAEVKKPGASVKVSCKASGYTFTSYGISWVRQAPGQGLEWMGWISAYNGNTNYAQKLQGRVTMTTDTSTSTAYMELRSLRSDDTAVYYCARDHSIVGATTFDYWGQGTLVTVSS
VL: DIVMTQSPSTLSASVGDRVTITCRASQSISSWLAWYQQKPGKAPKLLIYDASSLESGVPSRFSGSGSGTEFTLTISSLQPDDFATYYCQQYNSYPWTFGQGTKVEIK
notes: scFv
B2: A-003 (scFv format) (scFv, V domains shown)
VH: VQLVQSGAEVKKPGSSVKVSCKASGGTFSSYAISWVRQAPGQGLEWMGGIIPIFGTANYAQKFQGRVTITADESTSTAYMELSSLRSEDTAVYYCASPRIQLWAAGGFDYWGQGTLVTVSS
VL: QSALTQPASVSGSPGQSITISCTGTSSDVGGYNLVSWYQQHPGKAPKLMIYDVSNRPSGVSNRFSGSKSGNTASLTISGLQAEDEADYYCSSFTTSTTLVFGGGTKLTVL
notes: scFv
B3: A-029 (scFv format) (scFv, V domains shown)
VH: QVQLVQSGAEVKKPGSSVKVSCKASGGTFSSYAISWVRQAPGQGLEWMGGIIPIFGTANYAQKFQGRVTITADESTGTAYMELSSLRSEDTAVYYCARSYYYYYGMDVWGQGTTVTVSS
VL: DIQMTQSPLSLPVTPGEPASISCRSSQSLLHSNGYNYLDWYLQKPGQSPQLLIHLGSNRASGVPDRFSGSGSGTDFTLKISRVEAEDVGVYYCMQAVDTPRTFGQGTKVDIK
notes: scFv
B4: A-027 (scFv format) (scFv, V domains shown)
VH: QVQLVQSGAEVKKPGSSVKVSCKASGGTFSSYAISWVRQAPGQGLEWMGGIIPIFGTANYAQKFQGRVTITADKSTSTAYMELSSLRSEDTAVYYCARARGSTWGYFDYWGQGTLVTVSS
VL: EIVLTQSPASLSLSPGERVTLSCRASQSVSNYLAWYQQKPGQAPRLLIYDASNRATGIPARFSGSGSGTDFTLTISSLEPEDFAVYYCQQRDNWPLTFGGGTKVEIK
notes: scFv
B5: A-034 (scFv format) (scFv, V domains shown)
VH: QMQLVQSGGGLVKPGGSLRLSCAASGFTFSSYTMNWVRQAPGKGLEWVSSISSIGTYIYYADSVKGRFTISRDNAKNSLYLQMNSLRAEDTAVYYCARVLLSGSYYGYFDSWGQGTLVTVSS
VL: QSVLTQPPSVSGAPGQRVTISCTGSSSNIGAGYDVHWYQQLPGTAPKLFIYGNSNRPSGVPDRFSGSKSGTSASLAITGLQAEDEADYYCQSYDSSLSGYVFGTGTKVTVL
notes: scFv
B6: A-004 (scFv format) (scFv, V domains shown)
VH: EVQLVESGGGLVKPGGSLRLSCAASGFTFSSYSMNWVRQAPGKGLEWVSSISSSSSYIYYADSVKGRFTISRDNAKNSLYLQMNSLRAEDTAVYYCARGQLLWFGESALIDAFDIWGQGTMVTVSS
VL: EIVLTQSPSSLSASVGDRVTITCRASQSISSYLNWYQLKPGKAPKLLIYAASILQSGVPSRFSGSGSGTDFTLTISSLQPEDFAAYYCQQSYSTPRTFGQGTKLEIK
notes: scFv
B7: A-035 (scFv format) (scFv, V domains shown)
VH: QVQLVQSGAEVKKPGASVKVSCKASGYTFTGYYMHWVRQAPGQGLEWMGWINPNSGNTGYAQKFQGRVTMTRNTSISTAYMELSSLRSEDTAVYYCARGRLERGYWYFDLWGRGTLVTVSS
VL: NFMLTQPHSVSESPGRTVTISCTRSSGSITSNYVQWYQQRPGSAPTILIYEDKERPSEVPDRFSGSIDISSNSASLTISGLKTEDEADYYCQSYGGTSQGVLFGGGTKVTVL
notes: scFv
B8: C-008 (IgG1 format) (antibody, V domains shown)
VH: EVQLLESGGGLVQPGGSLRLSCAASGFTFSSYAMSWVRQAPGKGLEWVSAISGSGGSTYYADSVKGRFTISRDNSKNTLYLQMNSLRAEDTAVYYCTTDNGHNRDWGQGTLVTVSS
VL: ASVLTQPPSVSAAPGQKVTISCSGSSSNIGNNYVSWYQQLPGTAPKLLIYDNNKRPSGIPDRFSGSKSGTSATLGITGLQAEDEADYYCGTWTRSSGVFGGGTKLTVL
notes: wildtype human IgG1 and kappa or lambda constant regions
B9: C-006 (IgG1 format) (antibody, V domains shown)
VH: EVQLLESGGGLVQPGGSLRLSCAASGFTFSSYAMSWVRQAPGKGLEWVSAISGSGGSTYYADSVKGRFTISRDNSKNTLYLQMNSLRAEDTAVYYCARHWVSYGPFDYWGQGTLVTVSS
VL: DIQMTQSPSSLSASVGDRVTITCRASQSISSYLNWYQQKPGKAPKLLIYAASSLQSGVPSRFSGSGSGTDFTLTISSLQPEDFATYYCQQSHQSPPITFGQGTKVEIK
notes: as for B8
B10: C-002 (IgG1 format) (antibody, V domains shown)
VH: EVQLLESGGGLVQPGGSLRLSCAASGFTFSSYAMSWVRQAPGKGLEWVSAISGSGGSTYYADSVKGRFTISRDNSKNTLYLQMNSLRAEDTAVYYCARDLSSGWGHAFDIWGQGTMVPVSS
VL: ASVLTQPPSVSAAPGQKVTISCSGSSSNIGNNYVSWYQQLPGTAPKLLIYDNNKRPSGIPDRFSGSKSGTSATLGITGLQAEDEADYYCLSYTTSEHHLVFGGGTKLTVL
notes: as for B8
B11: C-013 (IgG1 format) (antibody, V domains shown)
VH: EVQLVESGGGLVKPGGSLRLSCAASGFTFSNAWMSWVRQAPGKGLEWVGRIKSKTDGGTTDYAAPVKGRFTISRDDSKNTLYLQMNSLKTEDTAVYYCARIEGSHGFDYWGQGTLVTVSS
VL: SYELTQPPSVSVSPGQTASITCSGDKLGDKYASWYQQKPGQSPVLVIYQDSKRPSGIPERFSGSNSGNTATLTISGTQAEDEADYYCASYLHTPKQFVFGGGTKLTVL
notes: as for B8
B12: C-009 (IgG1 format) (antibody, V domains shown)
VH: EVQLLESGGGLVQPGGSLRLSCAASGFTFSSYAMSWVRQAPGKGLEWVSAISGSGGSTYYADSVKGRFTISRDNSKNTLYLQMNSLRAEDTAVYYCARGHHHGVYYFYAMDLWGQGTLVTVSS
VL: SYELTQPPSVSVSPGQTASITCSGDKLGDKYASWYQQKPGQSPVLVIYQDSKRPSGIPERFSGSNSGNTATLTISGTQAEDEADYYCQSYSGSSTLHVFGGGTKLTVL
notes: as for B8
B13: C-023 (IgG1 format) (antibody, V domains shown)
VH: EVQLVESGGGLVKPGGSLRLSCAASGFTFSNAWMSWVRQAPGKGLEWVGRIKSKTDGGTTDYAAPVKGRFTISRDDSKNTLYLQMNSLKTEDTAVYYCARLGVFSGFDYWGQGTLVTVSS
VL: SYELTQPPSVSVSPGQTASITCSGDKLGDKYASWYQQKPGQSPVLVIYQDSKRPSGIPERFSGSNSGNTATLTISGTQAEDEADYYCHTWTHHSLAVVFGGGTKLTVL
notes: as for B8
B14: A-033 (IgG1 format) (antibody, V domains shown)
VH: QVQLVQSGAEVKKPGASVKVSCKASGYTFTSYGISWVRQAPGQGLEWMGWISAYNGNTNYAQKLQGRVTMTTDTSTSTAYMELRSLRSDDTAVYYCARDHSIVGATTFDYWGQGTLVTVSS
VL: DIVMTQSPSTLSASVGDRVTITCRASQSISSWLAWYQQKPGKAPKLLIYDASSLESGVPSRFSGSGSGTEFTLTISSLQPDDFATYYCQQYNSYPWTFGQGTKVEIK
notes: human IgG1 format
B15: A-003 (IgG1 format) (antibody, V domains shown)
VH: VQLVQSGAEVKKPGSSVKVSCKASGGTFSSYAISWVRQAPGQGLEWMGGIIPIFGTANYAQKFQGRVTITADESTSTAYMELSSLRSEDTAVYYCASPRIQLWAAGGFDYWGQGTLVTVSS
VL: QSALTQPASVSGSPGQSITISCTGTSSDVGGYNLVSWYQQHPGKAPKLMIYDVSNRPSGVSNRFSGSKSGNTASLTISGLQAEDEADYYCSSFTTSTTLVFGGGTKLTVL
notes: human IgG1 format
B16: A-029 (IgG1 format) (antibody, V domains shown)
VH: QVQLVQSGAEVKKPGSSVKVSCKASGGTFSSYAISWVRQAPGQGLEWMGGIIPIFGTANYAQKFQGRVTITADESTGTAYMELSSLRSEDTAVYYCARSYYYYYGMDVWGQGTTVTVSS
VL: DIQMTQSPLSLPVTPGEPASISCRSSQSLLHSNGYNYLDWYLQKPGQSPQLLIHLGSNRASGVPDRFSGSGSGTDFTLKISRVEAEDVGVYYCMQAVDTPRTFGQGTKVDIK
notes: human IgG1 format
B17: A-025 (IgG1 format) (antibody, V domains shown)
VH: QVQLVQSGAEVKKPGSSVKVSCKASGGTFSSYAISWVRQAPGQGLEWMGGIIPIFGTANYAQKFQGRVTITADESTSTAYMELTSLRSEDTAVYYCARGGWLRQNWFDPWGQGTLVTVSS
VL: SSELTQDPAVSVALGQTVRITCQGDSLRSYYASWYQQKPGQAPVLVIYGKNNRPSGIPDRFSGSSSGNTASLTITGAQAEDEADYYCNSRDSSGNHPRVFGGGTKLTVL
notes: human IgG1 format
B18: A-009 (IgG1 format) (antibody, V domains shown)
VH: QVQLVQSGAEVKKPGSSVKVSCKASGGTFSSYAISWVRQAPGQGLEWMGGIIPIFGTANYAQKFQGRVTITADESTSTAYMELSSLRSEDTAVYYCARGRGFGELYFDYWGQGTLVTVSS
VL: ETTLTQSPATLSVSPGERATLSCRASQGVRSNIAWYQQKPGQAPRLLIYDSSTRATGIPARFSGSGSGTEFTLTISSLQSEDFAVYSCQQYKNWPRTFGQGTKVEIK
notes: human IgG1 format
B19: A-023 (IgG1 format) (antibody, V domains shown)
VH: QVQLVQSGAEVKKPGSSVKVSCKASGGTFSSYAISWVRQAPGQGLEWMGGIIPIFGTANYAQKFQGRVTITADESTSTAYMELSSLRSEDTAVYYCARPKYSSGWFYYYGMDVWGQGTTVTVSS
VL: QSVLTQPPSVSAAPGQKVTISCSGSSSNIGNNYVSWYQQLPGTAPKLLIYDNNKRPSGIPDRFSGSKSGTSATLGITGLQTGDEADYYCGTWDSSLSVVFGGGTKLTVL
notes: human IgG1 format
B20: A-016 (IgG1 format) (antibody, V domains shown)
VH: QVQLQESGAEVKKPGASVKVSCKASGYTFTGYYMHWVRQAPGQGLEWMGGIIPIFGTANYAQKFQGRVTITADESTSTAYMELSSLRSEDTAVYYCAGAGMELTRSGAYYYYGMDVWGQGTTVTVSS
VL: QSALTQPASVSGSPGQSITISCTGTSSDIGGYTFVSWYQQHPGKAPKVMIHDVNNRPSGISNRFSGSKSGNTASLTISGLQAEDEADYYCSSVTSTNTYVFGTGTKVTVL
notes: human IgG1 format
B21: A-008 (IgG1 format) (antibody, V domains shown)
VH: QLQLQESGPGLVKPSETLSLTCTVSGGSISSSGYYWGWIRQPPGKGLEWIGSIYYSGSTYYNPSLKSRVTISVDTSKNQFSLKLSSVTAADTAVYYCARHRVRFGEFDAFDIWGQGTMVTVSS
VL: QAVLTQPPSVSGAPGERVTLSCTGTSSNVGADFDVHWYQQFPGTAPRLLIFGSDNRPSGVPDRFSGSKSGTSASLAITGLQVEDEADYYCQAYDVRLSGWVFGGGTKLTVL
notes: human IgG1 format
B22: A-001 (IgG1 format) (antibody, V domains shown)
VH: EVQLVESGGGLVKPGGSLRLSCAASGFTFSSYSMNWVRQAPGKGLEWVSSISSSSSYIYYADSVKGRFTISRDNAKNSLYLQMNSLRAEDTAVYYCVRSIIVQALGITSVFDIWGQGTMVTVSS
VL: AIRLTQSPSSLSASVGDRVTISCRASQIISNHLNWYQQKPGKAPKLLIYAASRLQTGVPSRFSGSGSETDYTLTISSLQPEDFATYYCQQSYSNPRTFGHGTKVEIK
notes: human IgG1 format

One experiment deals with T3, Streptavidin (UniProt P22629 37-163, limits assumed).
T3 construct: also called negative antigen; irrelevant antigen
T3 sequence (P22629 37-163 limits assumed): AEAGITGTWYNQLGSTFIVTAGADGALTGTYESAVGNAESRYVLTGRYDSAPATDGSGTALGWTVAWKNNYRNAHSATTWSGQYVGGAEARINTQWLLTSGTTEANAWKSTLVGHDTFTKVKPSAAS
As to the kind of experiment: ELISA, scFv.
As for B1, the binding result is on record as “no binding (tested: <0.025 or <0.05 RFU)”.
Consider B2, for which the binding result was “no binding (tested: <0.025 or <0.05 RFU)”.
Same read-out and setting: the entry for B3 is “no binding (tested: <0.025 or <0.05 RFU)”; for B4 it is “no binding (tested: <0.025 or <0.05 RFU)”.
Still for that read-out and setting: the entry for B5 is “no binding (tested: <0.025 or <0.05 RFU)”; for B6 it is “no binding (tested: <0.025 or <0.05 RFU)”.
As for B7, the binding result is given as “no binding (tested: <0.025 or <0.05 RFU)”.

The next experiment addresses T1, IGSF11 ECD fused to murine-Fc. Description: ELISA, IgG. (In general: ELISA stands for enzyme-linked immunosorbent assay.)
From the text: Expi293 cells (ThermoFisher) were transiently transfected with DNA sequences encoding the applicable IGSF11 domain-mFc fusions according to the manufacturer's instructions, and cultured under conditions suitable to the IGSF11 domain fusion. Cell supernatants were harvested 5 days post transfection and the expressed Fc-protein purified via Protein A affinity chromatography (GE Healthcare). IGSF11 domain Fc-fusion proteins were re-buffered into PBS pH7.4. […] The surface was blocked with 2% (w/v) skim milk powder in PBST. After three wash cycles with PBST, a dilution series of IgG-format ABPs was transferred to the immobilized the Fc-fusion IGSF11 ECD or the IGSF11 domains and incubated for 1 h. After removing all unbound antibodies by 3 wash cycles with PBST, bound IgG ABPs were detected with a goat anti-human IgG antibody conjugated with horseradish peroxidase. After three wash cycles with PBST the ELISA was developed with TMB substrate.
For the molecule B8, the concentration for a half-maximal effect (EC50) is less than 1 nM.
Consider B9, for which the concentration for a half-maximal effect (EC50) lay in the range of 1 to 20 nM.
For the molecule B10, the EC50 is 1 to 20 nM.
Consider B11, for which the EC50 was 1 to 20 nM.
Still for that read-out and setting: as for B12, the figure is 1 to 20 nM; as for B13, less than 1 nM.

Another experiment addresses T2, His-tagged extracellular domain (ECD) …. As to the kind of experiment: ELISA EC50 grade, IgG1.
For B14, the EC50 lay in the range of 0.02 to 0.05 nM.
Same read-out and setting: the figure for B15 is 0.05 to 1 nM; for B16 it is 0.05 to 1 nM.
Still for that read-out and setting: the figure for B17 is 0.05 to 1 nM.
Same read-out and setting: the figure for B18 is 0.05 to 1 nM; for B19 it is 0.05 to 1 nM; for B20 it is less than 0.02 nM.
The molecule B21 returned an EC50 of 0.02 to 0.05 nM.
For B22, the EC50 is less than 0.02 nM.

Broadly, the EC50 is the concentration that produces a half-maximal response. Read a high EC50 as weaker potency.
